The source of these data is patent publication US20220009959A1.

For test [1], the target named is CHO-K1 host cell proteins of mAb production clarified cell culture harvest (Chinese hamster (CHO-K1)). The test is described as follows: static binding pH 7, 20 mM NaCl; HCP ELISA over Easy-Titer (reference: mAb m53).
The target is the same in test [2]. The test is described as follows: static binding pH 6, 150 mM NaCl.
In test [3] the target is monoclonal antibody product of the CHO-K1 production harvest. The test is described as follows: static binding pH 6, 150 mM NaCl.
For test [4], the target named is high molecular weight HCPs (MW>150 kDa) of CHO-K1 IgG1 harvest (Chinese hamster (CHO-K1)). The test is described as follows: flow-through, SEC; 1 min RT, 60 CV cut-off load.
Test [5] concerns the target low molecular weight HCPs (10 kDa<MW<150 kDa) of CHO-K1 IgG1 harvest (Chinese hamster (CHO-K1)). The test is described as follows: flow-through, SEC; 1 min RT, 60 CV cut-off load.
In test [6] the target is high molecular weight HCPs (MW>150 kDa) of CHO-K1 IgG1 harvest (Chinese hamster (CHO-K1)). Put plainly: flow-through, SEC; 10-30 CV load.

In the case of 4MP-Toyopearl resin, the HCP targeted binding ratio (TBR; % HCP removed / % mAb removed) in test [1] turned out to be 4.87. The results for the Kp (partition coefficient) in test [2] and in test [3] were 7.3 and 0.75, respectively.
Consider 6HP-Toyopearl resin, for which the values for the Kp (partition coefficient) in test [2] and in test [3] were 6.1 and 0.96, respectively.
In test [4], 6HP/4MP-Toyopearl resin came in with a percent reduction in HMW % of 50%. Moreover, the percent reduction in LMW % in test [5] is 36%. In test [6], this substance returned a fold reduction in HMW species of 2 to 4 fold.
